What all share (test): EMSA
In general terms: A gel shift assay detects complexes by their altered migration in electrophoresis.

In series [1] the test system is RhsP2tox WT (Pseudomonas aeruginosa PA14).
The target in series [2] is RhsP2tox K1564E K1564E (Pseudomonas aeruginosa PA14) (UniProt A0A0H2Z8A2).
In series [3] the target is RhsP2tox K1567E K1567E (Pseudomonas aeruginosa PA14) (UniProt A0A0H2Z8A2).
Series [4] deals with RhsP2tox K1574E K1574E (Pseudomonas aeruginosa PA14) (UniProt A0A0H2Z8A2).
In series [5] the target is RhsP2tox K1579E K1579E (Pseudomonas aeruginosa PA14) (UniProt A0A0H2Z8A2).
Series [6] has as its target RhsP2tox K1580E K1580E (Pseudomonas aeruginosa PA14) (UniProt A0A0H2Z8A2).
The target in series [7] is RhsP2tox R1563E R1563E (Pseudomonas aeruginosa PA14) (UniProt A0A0H2Z8A2).
For series [8], the target named is RhsP2tox WT (Pseudomonas aeruginosa PA14) (UniProt A0A0H2Z8A2).

What is called Kd is a measure of binding affinity in units of concentration. For CsrB sRNA, in series [1], the Kd is 0.67 µM. This counts as sub-micromolar.
On the same count and under the same terms, then McaS sRNA, with 6.9 µM.
As to “GGGACCGGCGCAGAGGAGACAAUGCCGGAUUUAAGACGCGGAUGCACUGCUGUGUGUACUGUAGAGUCUGGCGGAUGUCGACAGACUCUAUUUUUUU [McaS sRNA]”, the binding result in series [2] is “binds more weakly”; in series [3], “binds more weakly”; in series [4], “no binding”; in series [5], “binds more weakly”; in series [6] it was “binds more weakly”; in series [7], “binds more weakly”. For the same substance, the Kd in series [8] was determined as 6.9 µM.
In turn, synthetic 50-nt RNA yielded a dissociation constant (Kd) in series [1] of 2.2 µM.

The record behind these values is PMC12340436.
